According to patent publication US20250277030A1, “ANTI-NAPI2B ANTIBODIES AND METHODS OF USE” (Zymeworks BC Inc., priority 2022, published 2025):

Target: Insulin (Sigma-Aldrich, 19278) (UniProt P01308)
Assay: non-specific binding ELISA, insulin coated at 5 µg/mL, antibody at 100 nM

Sequence of Insulin (Sigma-Aldrich, 19278) (P01308 25-54 limits assumed, chain 1 of 2): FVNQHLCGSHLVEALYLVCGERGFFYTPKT
Sequence of Insulin (Sigma-Aldrich, 19278) (P01308 90-110 limits assumed, chain 2 of 2): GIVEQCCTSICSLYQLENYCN

B1: v29452 humanized anti-NaPi2b antibody (H1L3) (antibody, human IgG1, kappa, V domains shown)
VH: QVQLVQSGAEVKKPGASVKVSCKASGFTFTSYNVHWVRQAPGQGLEWMGAISPGNGDLSYAQKFQGRVTMTRDTSTSTVYMELSSLRSEDTAVYYCARGRTGMGAVDYWGQGTLVTVSS
VL: DVQMTQSPSSLSASVGDRVTITCRASQDVYSYLNWYQQKPGKAVKLLIYYTSRLQSGVPSRFSGSGSGTDYTLTISSLQPEDIATYYCQQYNIFPWTFGQGTKLEIKR
- NS-ELISA binding score (ratio of signal between antibody-treated and untreated): 1.03
